T1: CEACAM5 (Recombinant Human CEACAM-5/CD66e Protein) (Homo sapiens, UniProt P06731)
T1 construct: purchased R&D SYSTEMS
T1 sequence (P06731 35-702): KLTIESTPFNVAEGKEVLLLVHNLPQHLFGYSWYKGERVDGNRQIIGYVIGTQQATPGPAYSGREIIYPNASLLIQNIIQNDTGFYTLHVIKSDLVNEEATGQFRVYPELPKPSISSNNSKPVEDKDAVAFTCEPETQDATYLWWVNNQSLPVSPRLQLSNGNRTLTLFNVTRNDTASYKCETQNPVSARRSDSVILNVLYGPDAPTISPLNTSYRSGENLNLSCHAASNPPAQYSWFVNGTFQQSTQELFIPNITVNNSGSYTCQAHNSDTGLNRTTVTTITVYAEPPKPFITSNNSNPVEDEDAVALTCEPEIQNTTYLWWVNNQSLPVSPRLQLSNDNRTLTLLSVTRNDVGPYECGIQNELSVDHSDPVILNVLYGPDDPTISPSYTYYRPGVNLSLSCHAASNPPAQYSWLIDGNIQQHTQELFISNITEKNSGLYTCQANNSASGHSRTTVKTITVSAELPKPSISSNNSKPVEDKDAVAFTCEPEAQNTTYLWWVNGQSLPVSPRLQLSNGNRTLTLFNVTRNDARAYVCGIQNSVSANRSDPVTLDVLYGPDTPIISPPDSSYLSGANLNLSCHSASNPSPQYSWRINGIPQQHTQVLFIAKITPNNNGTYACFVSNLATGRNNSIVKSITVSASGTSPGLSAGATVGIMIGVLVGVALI

B1: CEA-V2122: anti-CEACAM5 scFv joined by amino acid linker GGGGSGGGG to streptavidin variant V2122 (SEQ ID NO: 3) (protein)
chain: QVKLEQSGAEVVKPGASVKLSCKASGFNIKDSYMHWLRQGPGQRLEWIGWIDPENGDTEYAPKFQGKATFTTDTSANTAYLGLSSLRPEDTAVYYCNEGTPTGPYYFDYWGQGTLVTVSSGGGGSGGGGSGGGGSENVLTQSPSSMSVSVGDRVNIACSASSSVPYMHWLQQKPGKSPKLLIYLTSNLASGVPSRFSGSGSGTDYSLTISSVQPEDAATYYCQQRSSYPLTFGGGTKLEIKGGGGSGGGGAEAGITGTWSDQLGDTFIVTAGADGALTGTYENAVGGAESRYVLTGRYDSAPATDGSGTALGWTVAWKNNSKNAHSATTWSGQYVGGADAKINTQWLLTSGTTNANAWKSTLVGHDTFTKVKPSAASHHHHHH
B2: CEA-V2122-FITC: CEA-V2122 labelled with FITC (Fluorescein Labeling Kit - NH2) (conjugate)
chain: B1 chain

Key:
[1] = molecular target: T1, CEACAM5 (Recombinant Human CEACAM-5/CD66e Protein); test: SPR (Biacore T200), CEA-V2122 on immobilised CEACAM5; assay type: binding
[2] = system: CEACAM5 on CEACAM5-positive MKN-45 cells and CEACAM5-negative DLD1 cells [CEACAM5陽性のヒト胃がん由来MKN-45細胞とCEACAM5陰性のヒト結腸がん由来DLD1細胞]; test: Cell staining with FITC-labelled CEA-V2122 (In Cell Analyzer 6000); assay type: cell-based, human
[3] = SPR, Single-Cycle Kinetics, Bivalent Analyze fit, analyte CEA-V2122 1E-08 M to 6.25E-10 M

Row | Molecule | KD (kd1/ka1) ([1]; SPR, Single-Cycle Kinetics, Bivalent Analyze fit, KD = kd1/ka1) | ka1 [1, 3] | kd1 [1, 3] | binding to CEACAM5 (in words) ([1]; from sensorgram and KD value, Fig. 3) | recognition of CEACAM5 on the cell membrane surface (in words) ([2]; 20 nM CEA-V2122-FITC, 4℃, 30 min, Fig. 5) | behaviour of CEACAM5 after CEA-V2122-FITC binding (in words) ([2]; MKN45 cells, time series, Fig. 6)
1 | B1 | 1.078E-12 | 3.208E+5 | 3.461E-7 | 強く結合する |  | 
2 | B2 |  |  |  |  | 細胞膜表面のCEACAM5を特異的に認識する | 細胞膜表面に滞留する
